The record followed here is patent publication US20120178908A1 (Novo Nordisk, published 2012).

The chains are these.
B1: Fab 0012-LC-L2-TF;VH-CH1-HPC4 (protein)
light chain-linker-TF: DVVMTQTPLSLPVSLGDQASISCRSSQSLVHRNGNTYFHWCLQKPGQSPKLLIYKVSNRFSGVPDRFSGSGSGTDFTLKISRVEAEDLGVYFCSQSTHVPYTFGGGTKLEIKRTVAAPSVFIFPPSDEQLKSGTASVVCLLNNFYPREAKVQWKVDNALQSGNSQESVTEQDSKDSTYSLSSTLTLSKADYEKHKVYACEVTHQGLSSPVTKSFNRGECGSGGGGSSGTTNTVAAYNLTWKSTNFKTILEWEPKPVNQVYTVQISTKSGDWKSKCFYTTDTECDLTDEIVKDVKQTYLARVFSYPAGNVESTGSAGEPLYENSPEFTPYLETNLGQPTIQSFEQVGTKVNVTVEDERTLVRRNNTFLSLRDVFGKDLIYTLYYWKSSSSGKKTAKTNTNEFLIDVDKGENYCFSVQAVIPSRTVNRKSTDSPVECMGQEKGEFRE
VH-CH1-HPC4: EVKLLESGGGLVQPGGSLKLSCAASGFDFSRYWMTWVRQAPGKGLEWIGEINPDSSTINYTPSLKDKFIISRDNAKNTLYLQMSEVRSEDTALYYCASGVFTSWGQGTLVTVSAASTKGPSVFPLAPCSRSTSESTAALGCLVKDYFPEPVTVSWNSGALTSGVHTFPAVLQSSGLYSLSSVVTVPSSSLGTKTYTCNVDHKPSNTKVDKRVESKEDQVDPRLIDGK
B2: Fab 0012-LC-L7-TF;VH-CH1-HPC4 (protein)
light chain-linker-TF: DVVMTQTPLSLPVSLGDQASISCRSSQSLVHRNGNTYFHWCLQKPGQSPKLLIYKVSNRFSGVPDRFSGSGSGTDFTLKISRVEAEDLGVYFCSQSTHVPYTFGGGTKLEIKRTVAAPSVFIFPPSDEQLKSGTASVVCLLNNFYPREAKVQWKVDNALQSGNSQESVTEQDSKDSTYSLSSTLTLSKADYEKHKVYACEVTHQGLSSPVTKSFNRGECGGGGSGGGGSGGGGSGSGGGGSGGGGSGGGGSSGTTNTVAAYNLTWKSTNFKTILEWEPKPVNQVYTVQISTKSGDWKSKCFYTTDTECDLTDEIVKDVKQTYLARVFSYPAGNVESTGSAGEPLYENSPEFTPYLETNLGQPTIQSFEQVGTKVNVTVEDERTLVRRNNTFLSLRDVFGKDLIYTLYYWKSSSSGKKTAKTNTNEFLIDVDKGENYCFSVQAVIPSRTVNRKSTDSPVECMGQEKGEFRE
VH-CH1-HPC4: B1 VH-CH1-HPC4
B3: Fab 0012-LC-L6-TF;VH-CH1-HPC4 (protein)
light chain-linker-TF: DVVMTQTPLSLPVSLGDQASISCRSSQSLVHRNGNTYFHWCLQKPGQSPKLLIYKVSNRFSGVPDRFSGSGSGTDFTLKISRVEAEDLGVYFCSQSTHVPYTFGGGTKLEIKRTVAAPSVFIFPPSDEQLKSGTASVVCLLNNFYPREAKVQWKVDNALQSGNSQESVTEQDSKDSTYSLSSTLTLSKADYEKHKVYACEVTHQGLSSPVTKSFNRGECGGGGSGGGGSGSGGGGSGGGGSGGGGSSGTTNTVAAYNLTWKSTNFKTILEWEPKPVNQVYTVQISTKSGDWKSKCFYTTDTECDLTDEIVKDVKQTYLARVFSYPAGNVESTGSAGEPLYENSPEFTPYLETNLGQPTIQSFEQVGTKVNVTVEDERTLVRRNNTFLSLRDVFGKDLIYTLYYWKSSSSGKKTAKTNTNEFLIDVDKGENYCFSVQAVIPSRTVNRKSTDSPVECMGQEKGEFRE
VH-CH1-HPC4: B1 VH-CH1-HPC4
B4: Fab 0012-LC-L8-TF;VH-CH1-HPC4 (protein)
light chain-linker-TF: DVVMTQTPLSLPVSLGDQASISCRSSQSLVHRNGNTYFHWCLQKPGQSPKLLIYKVSNRFSGVPDRFSGSGSGTDFTLKISRVEAEDLGVYFCSQSTHVPYTFGGGTKLEIKRTVAAPSVFIFPPSDEQLKSGTASVVCLLNNFYPREAKVQWKVDNALQSGNSQESVTEQDSKDSTYSLSSTLTLSKADYEKHKVYACEVTHQGLSSPVTKSFNRGECGGGGSGGGGSGGGGSGGGGSGSGGGGSGGGGSGGGGSSGTTNTVAAYNLTWKSTNFKTILEWEPKPVNQVYTVQISTKSGDWKSKCFYTTDTECDLTDEIVKDVKQTYLARVFSYPAGNVESTGSAGEPLYENSPEFTPYLETNLGQPTIQSFEQVGTKVNVTVEDERTLVRRNNTFLSLRDVFGKDLIYTLYYWKSSSSGKKTAKTNTNEFLIDVDKGENYCFSVQAVIPSRTVNRKSTDSPVECMGQEKGEFRE
VH-CH1-HPC4: B1 VH-CH1-HPC4
B5: Fab 0012-LC-L3-TF;VH-CH1-HPC4 (protein)
light chain-linker-TF: DVVMTQTPLSLPVSLGDQASISCRSSQSLVHRNGNTYFHWCLQKPGQSPKLLIYKVSNRFSGVPDRFSGSGSGTDFTLKISRVEAEDLGVYFCSQSTHVPYTFGGGTKLEIKRTVAAPSVFIFPPSDEQLKSGTASVVCLLNNFYPREAKVQWKVDNALQSGNSQESVTEQDSKDSTYSLSSTLTLSKADYEKHKVYACEVTHQGLSSPVTKSFNRGECGSGGGGSGGGGSSGTTNTVAAYNLTWKSTNFKTILEWEPKPVNQVYTVQISTKSGDWKSKCFYTTDTECDLTDEIVKDVKQTYLARVFSYPAGNVESTGSAGEPLYENSPEFTPYLETNLGQPTIQSFEQVGTKVNVTVEDERTLVRRNNTFLSLRDVFGKDLIYTLYYWKSSSSGKKTAKTNTNEFLIDVDKGENYCFSVQAVIPSRTVNRKSTDSPVECMGQEKGEFRE
VH-CH1-HPC4: B1 VH-CH1-HPC4
B6: Fab 0012-LC-L9-TF;VH-CH1-HPC4 (protein)
light chain-linker-TF: DVVMTQTPLSLPVSLGDQASISCRSSQSLVHRNGNTYFHWCLQKPGQSPKLLIYKVSNRFSGVPDRFSGSGSGTDFTLKISRVEAEDLGVYFCSQSTHVPYTFGGGTKLEIKRTVAAPSVFIFPPSDEQLKSGTASVVCLLNNFYPREAKVQWKVDNALQSGNSQESVTEQDSKDSTYSLSSTLTLSKADYEKHKVYACEVTHQGLSSPVTKSFNRGECGGGGSGGGGSGGGGSGGGGSGGGGSGSGGGGSGGGGSGGGGSSGTTNTVAAYNLTWKSTNFKTILEWEPKPVNQVYTVQISTKSGDWKSKCFYTTDTECDLTDEIVKDVKQTYLARVFSYPAGNVESTGSAGEPLYENSPEFTPYLETNLGQPTIQSFEQVGTKVNVTVEDERTLVRRNNTFLSLRDVFGKDLIYTLYYWKSSSSGKKTAKTNTNEFLIDVDKGENYCFSVQAVIPSRTVNRKSTDSPVECMGQEKGEFRE
VH-CH1-HPC4: B1 VH-CH1-HPC4

The first experiment has as its target T1, TLT-1 18-188 relipidated in 20:80 PS:PC vesicles (human) (UniProt Q86YW5).
T1 sequence: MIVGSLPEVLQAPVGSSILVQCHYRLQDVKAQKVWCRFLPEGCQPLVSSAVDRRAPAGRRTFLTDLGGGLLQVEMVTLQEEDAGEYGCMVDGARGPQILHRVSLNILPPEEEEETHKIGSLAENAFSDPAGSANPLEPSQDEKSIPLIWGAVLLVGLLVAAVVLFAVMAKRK
With B1, the FVII-mediated FXa generation % Activity lipidated TLT-1 was 96% and the FVIIa-mediated FXa generation % Activity lipidated TLT-1 worked out at 106%.
For B2 the same measures were 95% and 98%.
Consider B3, for which the FVII-mediated FXa generation % Activity lipidated TLT-1 worked out at 94% and the FVIIa-mediated FXa generation % Activity lipidated TLT-1 is 101%.
The corresponding values for B4 are 94% and 98%.
In turn, B5 returned an FVII-mediated FXa generation % Activity lipidated TLT-1 of 98% and an FVIIa-mediated FXa generation % Activity lipidated TLT-1 of 105%.
For B6 the same measures were 88% and 95%.

A further experiment addresses T2, TLT-1 receptor on the surface of activated human platelets (human) (UniProt Q86YW5).
T2 sequence: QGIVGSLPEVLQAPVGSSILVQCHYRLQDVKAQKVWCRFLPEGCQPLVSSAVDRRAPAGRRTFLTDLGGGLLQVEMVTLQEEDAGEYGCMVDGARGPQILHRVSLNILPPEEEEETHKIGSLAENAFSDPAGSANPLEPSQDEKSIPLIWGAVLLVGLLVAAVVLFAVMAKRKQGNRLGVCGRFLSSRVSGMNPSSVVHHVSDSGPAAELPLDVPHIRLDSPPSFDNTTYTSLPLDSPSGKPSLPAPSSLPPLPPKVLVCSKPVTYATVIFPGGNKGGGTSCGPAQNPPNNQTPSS
In turn, B1 displayed an FVII-mediated FXa generation % Activity activated plts (n 4) of 96% and an FVIIa-mediated FXa generation % Activity activated plts (n 1) of 112%.
In turn, B2 came in with an FVII-mediated FXa generation % Activity activated plts (n 1) of 92% and an FVIIa-mediated FXa generation % Activity activated plts (n 1) of 95%.
For B3 the same measures were 95% and 91%.
For B4, the FVII-mediated FXa generation % Activity activated plts (n 1) was 86% and the FVIIa-mediated FXa generation % Activity activated plts (n 1) came to 81%.
B5: the FVII-mediated FXa generation % Activity activated plts (n 1) is 98% and the FVIIa-mediated FXa generation % Activity activated plts (n 1) is 97%.
B6 displayed an FVII-mediated FXa generation % Activity activated plts (n 1) of 80% and an FVIIa-mediated FXa generation % Activity activated plts (n 1) of 76%.
